Paper doi:10.1101/2022.01.19.476892 (bioRxiv, 2022)

Target: SARS-CoV S-6P protein (SARS-CoV; strain of S-6P  …, UniProt P59594, stabilised)
Experiment: cryo-EM structure

B1: antigen-binding fragment (Fab) of VacW-209 (Fab, V domains shown)
VH: QVQLVESGGGVVQPGRSLRLSCAASGFTFSSIAMHWVRQAPGKGLEWVAVMSFDGSIKYYGDSVKGRFTISRDNSKSTLYLQMNSLRAEDTAVYYCARGVQGYYDRSGYYNLDYNYGMDVWGQGTTVTVSS
VL: QSVLTQPPSVSGAPGQRVTISCTGSSSNIGAGYDVHWYQQLPGTAPKLLIYGNSNRPSGVPDRFSGSKSGTSASLAITGLQAEDEADYYCQSYDSSLSGWVFGGGTKLTVL
stoichiometry N: 3 Fabs per spike trimer
